{"source": "the nanobody polyreactivity screen of Harvey et al. (2022)"}
{"experiment": "yeast display, Sf9 membrane polyspecificity reagent, FACS + sequencing; frameworks hold sequencing errors", "in_short": "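Galactose-induced (36–48 hours) yeast carrying a synthetic nanobody display library were exposed to 10% biotinylated, detergent-solubilized Sf9 membrane reagent at 4 °C for 1 hour. FACS followed streptavidin microbead enrichment, using low and high (top ~1%) gates for expression (anti-HA) and reagent binding (streptavidin). Colony PCR, MiSeq 2 × 250 sequencing and CDR-length filtering followed. Labels for polyreactivity reflect the gate of origin.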"}
{"sequence": "QVQLVESGGGLVQAGGSLRLSCAASGFTFYVYTMGWYRQAPGKERELVAAITWSGGSTYYADSVKGRFTISRDNAKNNVYLQMNSLKPEDTAVYYCNRVGYWVGHDSWGQGTQVTVSS", "polyreactivity (PSR sort gate)": "high polyreactivity"}
{"sequence": "QVQLVESGGGLVQAGGSLRLSCAASGFTFYWYAMGWYRQAPGKERELVAAISNRGGSTYYADSVKGRFTISRDNAKNTVYLQMNSLKPEDTAVYYCATESRGVGAARYDYWGQGTQVTVSS", "polyreactivity (PSR sort gate)": "high polyreactivity"}
{"sequence": "QVQLVESGGGLVQAGGSLRLSCAASGFTFYYYAMGWYRQAPGKERELVAAISGGGGSTYYADSVKGRFTISRDNAKNTVYLQMNSLKPEDTAVYYCAAVGSWRYNYDYDYWGQGTQVTVSS", "polyreactivity (PSR sort gate)": "high polyreactivity"}
{"sequence": "QVQLVESGGGLVQAGGSLRLSCAASGFTFYYYAMGWYRQAPGKERELVAAISYSGGSTYYADSVKGRFTISRDNAKNTVYLQMNSLKPEDTAVYYCAALYTGESGYWGQGTQVTVSS", "polyreactivity (PSR sort gate)": "high polyreactivity"}
{"sequence": "QVQLVESGGGLVQAGGSLRLSCAASGFTFYYYAMGWYRQAPGKERELVAAITKNGGRTFYADSVKGRFTISRDNAKNTVYLQMNSLKPEDTAVYYCATVGNWPDYYYWGQGTQVTVSS", "polyreactivity (PSR sort gate)": "high polyreactivity"}
{"sequence": "QVQLVESGGGLVQAGGSLRLSCAASGFTFYYYAMGWYRQAPGKERELVASISSSGGSTYYADSVKGRFTISRDNAKNTVYLQMNSLKPEDTAGYYCARYRRRYDTYPGDYWGQGTQVTVSS", "polyreactivity (PSR sort gate)": "high polyreactivity"}
{"sequence": "QVQLVESGGGLVQAGGSLRLSCAASGFTFYYYAMGWYRQATGKVRELVAAISARGGSTYYADSVKGRFTISRDNAKNTVYLQMNSLKPEDTAVYYCNAVTGHTSYEYDYWGQGTQVTVSS", "polyreactivity (PSR sort gate)": "high polyreactivity"}
{"sequence": "QVQLVESGGGLVQAGGSLRLSCAASGFTGGRYAMGWYRQEPGKERELVDDISWSGGGTYYADSVKGRFTISRDNAKNTVYLQMNSLKPEDTAVYYCAAYWYRSYKRYGYWGQGTQVTVSS", "polyreactivity (PSR sort gate)": "high polyreactivity"}
{"sequence": "QVQLVESGGGLVQAGGSLRLSCAASGFTGVNAMGWYRQAPGKERELVARISNSGGSTYYADSVKGRFTISRDNAKNTVYLQMNSLKPEDTAVYYCNADSYYWGQGTQVTVSS", "polyreactivity (PSR sort gate)": "high polyreactivity"}
{"sequence": "QVQLVESGGGLVQAGGSLRLSCAASGFTIAKYAMGWYRQAPGKERELVAAISSSGGRTYYADSVKGRFTISRDNAKNTVYLQMNSLKPEDTAVYYCAADFSGPFDYWGQGTQVTVSS", "polyreactivity (PSR sort gate)": "high polyreactivity"}
{"sequence": "QVQLVESGGGLVQAGGSLRLSCAASGFTIAVYVMGWYRQAPGNERELVATISFSVGSTYYADSVKGRFTISRDNAKNTVYLLMNCLKPEVTAVYYCNADPPPEYYPDKDNSWGQGTQVTVSS", "polyreactivity (PSR sort gate)": "low polyreactivity"}
{"sequence": "QVQLVESGGGLVQAGGSLRLSCAASGFTICTYAMGWYRQAPGKERELVAAIDSGGSTYYADSVMGRFTISRDNAKTTVYLQMNSLKPEDTAVYYCNAGPSVTSGYDYDYWGQGTQVTVSS", "polyreactivity (PSR sort gate)": "low polyreactivity"}
{"sequence": "QVQLVESGGGLVQAGGSLRLSCAASGFTIDKNVMGWYRQAPGKERELVAAISVRGGTTYYADSVKGRFTISRDNAKNTVYLQMNSLKPEDTAVYYCAARAYGPPARYDSWGQGTQVTVSS", "polyreactivity (PSR sort gate)": "low polyreactivity"}
{"sequence": "QVQLVESGGGLVQAGGSLRLSCAASGFTIGDNAMGWSRQAPGKERELVAAITWSGGSTYYADSVKGRFTISRDNAKNTVYLQMNSLKPEDTAVYYCAADKLRELDYWGQGTEVTVSS", "polyreactivity (PSR sort gate)": "low polyreactivity"}
{"sequence": "QVQLVESGGGLVQAGGSLRLSCAASGFTIGRYAMGWYRQAPGKERELVAAISKNGGRTYYADSVKGRFTISRDNAKNTVYLQMNSLKPEDTAVYYCNTDWYYTGRVHGFDYWGQGTQVTVSS", "polyreactivity (PSR sort gate)": "high polyreactivity"}
{"sequence": "QVQLVESGGGLVQAGGSLRLSCAASGFTIGSYAMGWYRQAPGKEREFVAAIRRSGSSTYYADSVKGRFTISRDNAKNTVYLQMNSLKPEDTAVYYCAADVYRRLRRYRYYYWGQGTQVTVSS", "polyreactivity (PSR sort gate)": "low polyreactivity"}
{"sequence": "QVQLVESGGGLVQAGGSLRLSCAASGFTIISYTMGWYRQAPGKDRELVAAIRGGGRTYYADSVKGRFTISRDNAKNTVYLQMNSLKPEDTAVYYCAARLRYGGHYDYWGQGTQVTVSS", "polyreactivity (PSR sort gate)": "high polyreactivity"}
{"sequence": "QVQLVESGGGLVQAGGSLRLSCAASGFTINFYSLGWYRQAPGKERELVAAITASGGGSTYYADSVKGRFTISRDNAKNTVYLQMNSLKQEDTAVYYCNADFTGSFYTYEYWGQGTQVTVAS", "polyreactivity (PSR sort gate)": "low polyreactivity"}
{"sequence": "QVQLVESGGGLVQAGGSLRLSCAASGFTIQRYAMGWYRQAPGKERELVAAITSGGSTYYADSVKGSFTISRDNAKNTVYFQMNSLKPEDTSVYYCATRAVWSSWGRRYDSWGQGTQVTVSS", "polyreactivity (PSR sort gate)": "high polyreactivity"}
{"sequence": "QVQLVESGGGLVQAGGSLRLSCAASGFTIRRNAMGWYRQAPGKERELVAAISRSGGSTYADSVKGRFTISRDNAKNTVYLQMNSLKPEDTAVYYFASDHSDYRYTYTALIAEFYYWGQGTQVTVSS", "polyreactivity (PSR sort gate)": "low polyreactivity"}
{"sequence": "QVQLVESGGGLVQAGGSLRLSCAASGFTIRSYVMGWYRQAPGKERELVAAIRRSGGSTYYADSVKGRFTISRDNAKNTVYLHMNSMKPEDTAVYYCAAKAYTYYARIGFDYWGQGSQVTVSS", "polyreactivity (PSR sort gate)": "high polyreactivity"}
{"sequence": "QVQLVESGGGLVQAGGSLRLSCAASGFTIRSYVMGWYRQAPGKERELVAAIRRSGGSTYYADSVKGRFTISRDNAKNTVYLQMNSLKPEDTAVYYCAVGARWYWSYYWGQGTQVTVSS", "polyreactivity (PSR sort gate)": "high polyreactivity"}
{"sequence": "QVQLVESGGGLVQAGGSLRLSCAASGFTIRWYTMGWYRQAPGKERELVAAISRGGSTNYADSVKGRFTISRDNAKNTVYLQMNSLKPEDTAVYYCNAVRGGRYGLDYWGQGTQVTVSS", "polyreactivity (PSR sort gate)": "high polyreactivity"}
{"sequence": "QVQLVESGGGLVQAGGSLRLSCAASGFTIRWYTMGWYRQAPGKERELVAAITSGGGTYYADSVKGRFTISRDNAKNTVYLQMNILKPEDTAVYYCAARTLSVARRRPYYYWGQGTQVTGSS", "polyreactivity (PSR sort gate)": "high polyreactivity"}
{"sequence": "QVQLVESGGGLVQAGGSLRLSCAASGFTIRYYAMGWYRQAPGKERELVAAIDWSGGSTYYADSVKGRFTISRDNAKNTVYLQINSLKPEDTAVYYCNVDFYDLYVYLWYVDYDYWGQGTQVTVSS", "polyreactivity (PSR sort gate)": "high polyreactivity"}
{"sequence": "QVQLVESGGGLVQAGGSLRLSCAASGFTISLYTMAWYRQAPGKERELVASNTRRGGSTYYADSVKGRFTISRDYAKNTVYLQMNSLKTEDTAGYYCARAARSDSIFKPRRGYATDGYWGQVTQVTVSS", "polyreactivity (PSR sort gate)": "high polyreactivity"}
{"sequence": "QVQLVESGGGLVQAGGSLRLSCAASGFTISPYAMGWYRQAPGKERELVAGITRNGGSTYYADSVKGRFTISRDNAKNTVYLQMNSLKPEDTAVYYCITKYAVEFDYWGQGTQVTVSS", "polyreactivity (PSR sort gate)": "low polyreactivity"}
{"sequence": "QVQLVESGGGLVQAGGSLRLSCAASGFTISRNAMGWYRQAPGKERELVAAISQSGGSTYYADSVKGRFTISRDNAKNTVYLQMNSLKPEDTAVYYCAAQSFAQYGWRYGYWGQGTQVTVSS", "polyreactivity (PSR sort gate)": "high polyreactivity"}
{"sequence": "QVQLVESGGGLVQAGGSLRLSCAASGFTISRYAIGWYRQAPGKERELVAAITGSGGSTYYADSVKGRFTISRDNAKNTVYLQMNSLKPEDTAVYYCNTLKHYKREYDYWGQGTQVTVSS", "polyreactivity (PSR sort gate)": "high polyreactivity"}
{"sequence": "QVQLVESGGGLVQAGGSLRLSCAASGFTISVYVMGWYRQAPGKERELVAAISSSGGSTYYADSVKGRFTISRDNAKNTVYLQMNSLKPEDTAVYYCNAAGYWSYAYYWGQGTQVTVSS", "polyreactivity (PSR sort gate)": "high polyreactivity"}
{"sequence": "QVQLVESGGGLVQAGGSLRLSCAASGFTIWRYAMGWYRQAPGKERELVAAISRGGSTNYADSVKGRFTISRDNAKKTVYLQMNSLKPEDTAGYYCAASVQYRRLKKFYYWGQGTQVTVSS", "polyreactivity (PSR sort gate)": "high polyreactivity"}
{"sequence": "QVQLVESGGGLVQAGGSLRLSCAASGFTIWRYAMGWYRQEPGKERELVAAISRGGSTNYADSVKGRFTISRDNAKNTVYLQMNSLKPEDTAVYYCAASVLYRRLKKFYYWGQGTQVTVSS", "polyreactivity (PSR sort gate)": "high polyreactivity"}
{"sequence": "QVQLVESGGGLVQAGGSLRLSCAASGFTIYLYTMGWYRQAPGKERELVAAITSSGTRTYYADSVKGRFTISRDNAKNTVYLQMNSLKPEDTAVYYCNAARYGRHLSTYDYWGQGTQVTVSS", "polyreactivity (PSR sort gate)": "high polyreactivity"}
{"sequence": "QVQLVESGGGLVQAGGSLRLSCAASGFTIYNYAMGWYRQAPGKERELVAAISWSGGSTHYADSVKGRFTISRDNAKNTVYLQMNSLKPEDTAVYYCAKVGVLVYYTYYYWGQGTQVTVSS", "polyreactivity (PSR sort gate)": "low polyreactivity"}
{"sequence": "QVQLVESGGGLVQAGGSLRLSCAASGFTIYRYAMGWYRQAPGKERELVATIRRGGSTKYADSVKGRYTISRDNAKNTVYILMISLKPEDTAVYYCNARYYAAPDKYYYWGQGTQVTVSS", "polyreactivity (PSR sort gate)": "low polyreactivity"}
{"sequence": "QVQLVESGGGLVQAGGSLRLSCAASGFTIYSYAKAWYRQAPGKERELVAAITRGSSTNYADSVKGRFTISRDNAKNTVYLQMNSLKPEDTAVYYCNRGGWRQYDSWGQGTQVTVSS", "polyreactivity (PSR sort gate)": "high polyreactivity"}
{"sequence": "QVQLVESGGGLVQAGGSLRLSCAASGFTLANYAMGWYRQAPGKERELVAAIDYSGGGTYYADSVKGRFTISRDNAKNTVYFQMNSLKPEDTAVYYCAARRWSYYSAKYDYWGQGTQVTVSS", "polyreactivity (PSR sort gate)": "low polyreactivity"}
{"sequence": "QVQLVESGGGLVQAGGSLRLSCAASGFTLANYAMGWYRQAPGKERELVAAISSSTGGTYYADSVKGRFTISRDNAKNTVYLQMNSLKPEDTAVYYCAAEYYFHKYVRMYYWGQGTQVTVSS", "polyreactivity (PSR sort gate)": "high polyreactivity"}
{"sequence": "QVQLVESGGGLVQAGGSLRLSCAASGFTLARNAMVWYRQAPGKERELVAANSWSGGTTYYADSVKGSFTISRDNAKNTVYLQMNSLKPEDTAVYYCNTASWRAQYYYWGQGNQVTVSS", "polyreactivity (PSR sort gate)": "high polyreactivity"}
{"sequence": "QVQLVESGGGLVQAGGSLRLSCAASGFTLAYNAMGWYRQAPGKESELVAAISKSSGSTYYADSVKGRFTISRDNSKNTFYLQMNSLKPEDTAVYYCAAEFYFNGVWYDYWGQGTQVTVSS", "polyreactivity (PSR sort gate)": "high polyreactivity"}
{"sequence": "QVQLVESGGGLVQAGGSLRLSCAASGFTLDPYAMGWYRQAPGKERELVAAIRLSGSSTYYADSVKGRFTISRDNAKNTVYLQMNSLKPEDTAVYYCAADGISHWLYRYDYWGQGTQVTVSS", "polyreactivity (PSR sort gate)": "low polyreactivity"}
{"sequence": "QVQLVESGGGLVQAGGSLRLSCAASGFTLDQYAMGWYRQAPGKERELVAVITSGGNTYYADSVKGRFTISRDNAKNTVYLQMNSLKPEDTAVYYCAKDVSDPFYDPFEYWGQGTQVTVSS", "polyreactivity (PSR sort gate)": "low polyreactivity"}
{"sequence": "QVQLVESGGGLVQAGGSLRLSCAASGFTLDSNALGWYRQAPGKERELVAAISWDDGSTYYADSVKGRFTISRDNAKNTVYLQMNSLKPEDTAVYYCAADASDVYGDRPWFHYYWGYDYWGQGTQVTVSS", "polyreactivity (PSR sort gate)": "low polyreactivity"}
